Source: paper doi:10.1101/794511

T1: E47 bHLH fragment (Mus musculus, UniProt P15806-2 430-648)
T1 sequence: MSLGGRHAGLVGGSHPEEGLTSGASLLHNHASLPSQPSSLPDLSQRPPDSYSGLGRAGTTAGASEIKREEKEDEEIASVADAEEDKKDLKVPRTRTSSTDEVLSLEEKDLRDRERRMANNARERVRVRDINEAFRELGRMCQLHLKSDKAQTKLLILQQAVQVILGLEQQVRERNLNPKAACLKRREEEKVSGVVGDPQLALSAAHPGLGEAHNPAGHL


Key:
Assay in all cases: EMSA
[1] = molecular target: Gsx2 N253A homeodomain fragment (Mus musculus, UniProt P31316 167-305, N253A)
[2] = molecular target: Gsx2 homeodomain fragment (Mus musculus, UniProt P31316 167-305)
Gsx2 homeodomain fragment, sequence (P31316 167-305): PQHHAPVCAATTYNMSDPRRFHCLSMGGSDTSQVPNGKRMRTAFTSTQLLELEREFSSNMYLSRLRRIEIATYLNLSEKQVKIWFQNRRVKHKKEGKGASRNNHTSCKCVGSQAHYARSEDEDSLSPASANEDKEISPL

E47 bHLH fragment = molecular target: T1, E47 bHLH fragment

Gsx2 N253A homeodomain fragment, sequence (P31316 167-305 N253A): as the sequence (P31316 167-305) above, with N87A counted along it

Binder | binding result [1] | binding result [2] | binding result (E47 bHLH fragment)
Gsx2_site (dsDNA) DNA 1: CAGAGTGTAATTAACATTCAGTAGTGCGGGCGTGGCT DNA 2: AGCCACGCCCGCACTACTGAATGTTAATTACACTCTG | no binding | binds | 
Ac-Luc E2 (dsDNA) DNA 1: CACCAACAGCTGCGTTTTTAGTGCGGGCGTGGCT DNA 2: AGCCACGCCCGCACTAAAAACGCAGCTGTTGGTG |  |  | binds
